Results: PMC11533527, “A yeast two-hybrid system to obtain triple-helical ligands from combinatorial random peptide libraries” (The Journal of Biological Chemistry, 2024)

Legend:
[1] = molecular target: T1, glutathione S-transferase (GST)-PEDF-fusion protein (mouse, UniProt P97298 20-417); assay: ELISA; competitive ELISA: wells coated with 10 μg/ml collagen I; annealed peptides preincubated with 3 nM GST-PEDF for 10 min at room temperature in 20 mM HEPES-Na pH 7.4, 100 mM NaCl, 0.005% Tween 20; 90 min at 4 °C in the wells; HRP-anti-GST detection; conditions: both partners purified
T1 construct: pigment epithelium-derived factor (PEDF); also called GST-fused PEDF; recombinant PEDF
T1 sequence (looked up): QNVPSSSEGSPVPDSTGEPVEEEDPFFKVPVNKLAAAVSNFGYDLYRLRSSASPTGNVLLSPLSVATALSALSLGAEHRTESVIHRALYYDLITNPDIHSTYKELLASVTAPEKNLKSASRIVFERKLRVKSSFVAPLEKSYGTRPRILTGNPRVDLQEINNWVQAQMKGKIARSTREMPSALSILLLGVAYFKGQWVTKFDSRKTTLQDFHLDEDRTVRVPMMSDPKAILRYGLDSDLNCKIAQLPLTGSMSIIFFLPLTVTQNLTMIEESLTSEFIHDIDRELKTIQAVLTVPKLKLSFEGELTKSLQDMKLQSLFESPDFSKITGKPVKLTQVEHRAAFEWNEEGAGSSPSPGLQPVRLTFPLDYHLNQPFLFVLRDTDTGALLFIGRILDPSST

[2] = molecular target: the molecule itself; assay: circular dichroism with thermal melting; peptides in PBS, heated at 95 °C, annealed at 4 °C overnight; [θ]225 followed from 4 to 85 °C; chains of one peptide forming a triple helix

B1: synthetic triple-helical peptide pep8 (peptide)
chain: YPPGPPGPPGPPGPRGPRGLLGLPGPPGPPGPPGPPG
HELM: PEPTIDE1{Y.P.[Hyp].G.P.[Hyp].G.P.[Hyp].G.P.[Hyp].G.P.R.G.P.R.G.L.L.G.L.[Hyp].G.P.[Hyp].G.P.[Hyp].G.P.[Hyp].G.P.[Hyp].G.[am]}$$$$V2.0; N-terminus assumed
SMILES: CC(C)C[C@H](NC(=O)CNC(=O)[C@H](CCCNC(=N)N)NC(=O)[C@@H]1CCCN1C(=O)CNC(=O)[C@H](CCCNC(=N)N)NC(=O)[C@@H]1CCCN1C(=O)CNC(=O)[C@@H]1C[C@@H](O)CN1C(=O)[C@@H]1CCCN1C(=O)CNC(=O)[C@@H]1C[C@@H](O)CN1C(=O)[C@@H]1CCCN1C(=O)CNC(=O)[C@@H]1C[C@@H](O)CN1C(=O)[C@@H]1CCCN1C(=O)CNC(=O)[C@@H]1C[C@@H](O)CN1C(=O)[C@@H]1CCCN1C(=O)[C@@H](N)Cc1ccc(O)cc1)C(=O)N[C@@H](CC(C)C)C(=O)NCC(=O)N[C@@H](CC(C)C)C(=O)N1C[C@H](O)C[C@H]1C(=O)NCC(=O)N1CCC[C@H]1C(=O)N1C[C@H](O)C[C@H]1C(=O)NCC(=O)N1CCC[C@H]1C(=O)N1C[C@H](O)C[C@H]1C(=O)NCC(=O)N1CCC[C@H]1C(=O)N1C[C@H](O)C[C@H]1C(=O)NCC(=O)N1CCC[C@H]1C(=O)N1C[C@H](O)C[C@H]1C(=O)NCC(N)=O
notes: Triple helix by CD; annealed before use; source: synthetic peptide (Fmoc solid phase, RP-HPLC purified)
Q: With B1 as the binder, how does the IC50 [1] read?
A: > 10 µM

Q: Does B1 bind [2]?
A: binds
